# B1: MBP peptide HKGFKGVDAQGTLSKIFKL, residues 138-156 of the human MBP 18.5 kDa isoform (peptide)
# peptide: HKGFKGVDAQGTLSKIFKL
# notes: myelin basic protein, human, 18.5-kDa isoform, residues 138-156; also called the peptide; myelin peptide; source: synthetic peptide, 95% purity; bought: Genemed Synthesis
# Key:
# Details in all cases: both partners purified
# [1] = molecular target: T1, calmodulin (recombinant, from the expression construct pETCM with vertebrate CaM cDNA) ( (vertebrate CaM cDNA), UniProt P0DP23 2-149); assay: small-angle X-ray scattering (SAXS); CaM in solution with and without a 5-fold molar excess of the peptide, 5.4 to 140.0 mg/ml; X33 beamline, DESY
# [2] = molecular target: T1, calmodulin (recombinant, from the …); assay: ITC; 1.0 mM MBP peptide injected into 0.10 mM CaM; 50 mM HEPES pH 7.5, 20 mM CaCl2; +25°C; fits: one site (peaks 2-7) and 4 sequential sites (peaks 2-20)
# [3] = molecular target: T1, calmodulin (recombinant, from the …); assay: ITC; 1.0 mM MBP peptide injected into 0.10 mM CaM; 50 mM HEPES pH 7.5, 20 mM CaCl2; +30°C; fits: one site (peaks 2-7) and 4 sequential sites (peaks 2-20)
# [4] = molecular target: T1, calmodulin (recombinant, from the …); assay: ITC; 1.0 mM MBP peptide injected into 0.10 mM CaM; 50 mM HEPES pH 7.5, 20 mM CaCl2; +35°C; fits: one site (peaks 2-7) and 4 sequential sites (peaks 2-20)
# [5] = molecular target: T1, calmodulin (recombinant, from the …); assay: ITC; 1.0 mM MBP peptide injected into 0.10 mM CaM; 50 mM HEPES pH 7.5, 20 mM CaCl2; +40°C; fits: one site (peaks 2-7) and 4 sequential sites (peaks 2-20)
# [6] = molecular target: T1, calmodulin (recombinant, from the …); assay: SPR; Biacore 3000; CaM immobilised by amine coupling (4000 RU); peptide 2.5-200 μM injected; 10 mM HEPES pH 7.5, 150 mM NaCl, 4 mM CaCl2, 0.005% P-20; 30 μl/min; two-state conformational change model; also 2-site model on equilibrium RU
binder,measurement,setting,value
B1,stoichiometry N,[1],1
same,Kd,[2],3.4 µM
same,Kd of the first binding event (4-site model),[2],1 µM
same,dH,[2],-1.47 ± 0.13 kcal/mol
same,dH of the first binding event (4-site model),[2],-1.44 ± 0.04 kcal/mol
same,stoichiometry N,[2],0.83 ± 0.23
same,Kd,[3],2.3 µM
same,Kd of the first binding event (4-site model),[3],1.1 µM
same,dH,[3],-2.11 ± 0.06 kcal/mol
same,dH of the first binding event (4-site model),[3],-2.07 ± 0.02 kcal/mol
same,stoichiometry N,[3],0.67 ± 0.02
same,Kd,[4],1.9 µM
same,Kd of the first binding event (4-site model),[4],1 µM
same,dH,[4],-2.38 ± 0.1 kcal/mol
same,dH of the first binding event (4-site model),[4],-2.34 ± 0.03 kcal/mol
same,stoichiometry N,[4],0.63 ± 0.02
same,Kd,[5],25.9 µM
same,Kd of the first binding event (4-site model),[5],1.7 µM
same,dH,[5],-1.09 ± 0.97 kcal/mol
same,dH of the first binding event (4-site model),[5],-0.73 ± 0.05 kcal/mol
same,stoichiometry N,[5],0.7 ± 0.17
same,Kd,[6],58 µM
same,"Kd of the high-affinity binding event (2-site model, equilibrium RU)",[6],~10 µM
same,"Kd of the low-affinity binding event (2-site model, equilibrium RU)",[6],~1000 µM

# From PMC2288786 (BMC Structural Biology, 2008)
